The results in this text go back to paper PMC13334471 (Journal of molecular and cellular cardiology, 2026).

Common to all, as to experiment: SPR
In general terms: Surface plasmon resonance follows binding to a sensor surface in real time, without labels.

Assay [1] has as its target F-actin-Tm composite thin filament (rabbit, UniProt P68135 1-377; P58772 1-284).
Assay [2] deals with Rabbit cardiac α-tropomyosin (rabbit, UniProt P58772 1-284).
The target in assay [3] is F-actin from rabbit back muscle (rabbit, UniProt P68135 1-377).

B1: Wild-type human cTnT-C14 peptide (C-terminal end 14 amino acids, residues 275-288, of cardiac troponin T) (peptide, UniProt P45379-6 275-288, looked up)
peptide: SKTRGKAKVTGRWK
Take B1: the “Maximum Signal (Δpm)” value was 434 Δpm in assay [1], 420 Δpm in assay [2] and 397 Δpm in assay [3]. For the same molecule, the figures for the koff in assay [1], in assay [2] and in assay [3] were 0.0362 s⁻¹, 0.0374 s⁻¹ and 0.0278 s⁻¹, respectively. Further, the kon in assay [1] was determined as 5270 M⁻¹ s⁻¹; in assay [2], 5910 M⁻¹ s⁻¹; in assay [3] it was 4150 M⁻¹ s⁻¹.

B2: Human cTnT-C14 peptide containing HCM-linked mutation R278C (peptide, UniProt P45379-6 275-288, looked up)
peptide: SKTCGKAKVTGRWK
On to B2, for which, in assay [1], the “Maximum Signal (Δpm)” value is 134 Δpm, the koff came to 0.02 s⁻¹ and the kon came to 3930 M⁻¹ s⁻¹. Moreover, in assay [2], the “Maximum Signal (Δpm)” value is 95.4 Δpm, the koff was 0.0219 s⁻¹ and the kon stood at 2500 M⁻¹ s⁻¹. In addition, in assay [3], the “Maximum Signal (Δpm)” value is 144 Δpm, the koff stood at 0.0169 s⁻¹ and the kon was 1450 M⁻¹ s⁻¹.

B3: Human cTnT-C14 peptide containing HCM-linked mutation K280N (peptide, UniProt P45379-6 275-288, looked up)
peptide: SKTRGNAKVTGRWK
In the case of B3, in assay [1], the “Maximum Signal (Δpm)” value is 109 Δpm, the koff was 0.041 s⁻¹ and the kon was determined as 6450 M⁻¹ s⁻¹. In assay [2], the “Maximum Signal (Δpm)” value is 108 Δpm, the koff came to 0.0351 s⁻¹ and the kon came out at 6600 M⁻¹ s⁻¹. In addition, in assay [3], the “Maximum Signal (Δpm)” value was 112 Δpm, the koff was found to be 0.0415 s⁻¹ and the kon was determined as 3810 M⁻¹ s⁻¹.

B4: Human cTnT-C14 peptide containing HCM-linked mutation R286C (peptide, UniProt P45379-6 275-288, looked up)
peptide: SKTRGKAKVTGCWK
For B4, in assay [1], the “Maximum Signal (Δpm)” value was 126 Δpm, the koff was determined as 0.0256 s⁻¹ and the kon is 3850 M⁻¹ s⁻¹. Besides, in assay [2], the “Maximum Signal (Δpm)” value is 114 Δpm, the koff came out at 0.0166 s⁻¹ and the kon was found to be 3110 M⁻¹ s⁻¹. In assay [3], the “Maximum Signal (Δpm)” value was 112 Δpm, the koff stood at 0.0172 s⁻¹ and the kon is 1570 M⁻¹ s⁻¹.

One may read the koff as the first-order rate constant of dissociation. A higher koff goes with fast dissociation. Broadly, the kon is the rate constant with which the complex forms. A low value points to slow association.
